Consider 2 substances from patent US20110152166A1, “METHOD OF MODULATION OF PROTEIN PHOSPHORYLATION-DEPENDENT CONFORMATIONAL TRANSITIONS WITH LOW MOLECULAR WEIGHT COMPOUNDS” (priority 2006, published 2011).

Positions count from the first letter of the chain named. Square brackets hold non-standard residues; d marks the D form. Ends that are not written are not given here. pS = N[C@@H](COP(=O)(O)O)C(=O)O

What all share (experiment): PDK1 activity assay with T308tide
Holding throughout (format): biochemical

The target in one experiment is T1, GST-PDK1 wt (Homo sapiens, UniProt O15530).
T1 construct: different protein constructs, comprising the full length protein or the catalytic domain alone; made in house; host or cells: HEK293 cells (pEBG-2T-PDK1)
T1 sequence (O15530 1-556): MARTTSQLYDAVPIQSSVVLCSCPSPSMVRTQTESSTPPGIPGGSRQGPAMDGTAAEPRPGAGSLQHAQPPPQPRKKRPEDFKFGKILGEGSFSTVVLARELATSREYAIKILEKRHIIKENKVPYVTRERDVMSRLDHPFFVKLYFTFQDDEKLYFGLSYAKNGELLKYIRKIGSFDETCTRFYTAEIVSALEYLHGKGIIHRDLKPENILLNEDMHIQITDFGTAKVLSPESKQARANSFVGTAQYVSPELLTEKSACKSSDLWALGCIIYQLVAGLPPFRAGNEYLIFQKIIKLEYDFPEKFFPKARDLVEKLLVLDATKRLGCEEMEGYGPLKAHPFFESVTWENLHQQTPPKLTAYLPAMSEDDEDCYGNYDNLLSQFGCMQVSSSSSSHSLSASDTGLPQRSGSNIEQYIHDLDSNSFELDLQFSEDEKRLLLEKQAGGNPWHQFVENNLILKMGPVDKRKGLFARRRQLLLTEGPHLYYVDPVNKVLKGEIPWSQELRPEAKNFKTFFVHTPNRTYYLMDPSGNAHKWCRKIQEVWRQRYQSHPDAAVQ
The procedure: (§1) Protein kinase activity tests were performed essentially as previously described (Balendran et al., 2000; Biondi et al., 2000; Biondi et al., 2001). Substrates used were either MBP (for PKCζ or polypeptides (Crosstide for PKB, S6K, SGK and PRK2; T308tide for PDK1, and Kemptide for PKA). PKA (Sigma) was measured in the presence of 100 μM cAMP. Alternatively, assays were performed in a 96 well format, aliquots spotted on p81 phosphocellulose papers (Whatmann), washed in 0.01% phosphoric acid, dried, and then exposed and analysed using Phospholmager technology (Storm, Molecular Dynamics). Activity measurements were performed in duplicates with less than 10% difference between duplicate pairs. Experiments were repeated at least twice, although most of the experiments were repeated multiple times, with similar results.
(§2) PDK1 activity assay was performed in a 20 μl mix containing 50 mM Tris-HCl pH 7.5, 0.05 mg/ml BSA, 0.1% β-mercaptoethanol, 10 mM MgCl2, 100 μM [γ^32P]ATP (5-50 cpm/pmol), 0.003% Brij, 150 ng PDK1, and T308tide (from 0.05 to 1 mM). PDK1 specific activity was approximately 5 U/mg (when measured at 1 mM T308tide). The effect of small compounds on PDK1 was repeated with proteins from different purification batches and with different protein constructs, comprising the full length protein or the catalytic domain alone, with similar results. […] This variability may be due to the PIFtide/compound-stimulated autophosphorylation of the activation loop in certain preparations having less than a 1:1 molar phosphorylation stoichiometry at this site.
(§3) PDK1 activity was measured at room temperature using a polypeptide substrate derived from the activation loop phosphorylation site of PKB, T308tide (0.1 mM). […] GST-PDK1 wt was purified in numerous occasions and the maximal activation level of different batches varied between 3 and 8 fold activation with PIFtide or compound 1. Variations in the basal activity and fold activation were also observed in mutants. Therefore, comparisons in the maximal level of activation between mutants should be performed with care. The data shown are from an experiment where PIFtide concentrations were tested between 50 nM and 20 µM and compound 1 concentrations were between 5 μM and 200 μM, in triplicate. AC50 and max. activity were estimated by fitting the data to a hyperbola using Kaleidagraph software. One Unit of PDK1 activity was defined as the amount required to catalyse the phosphorylation of 1 nmol of the T308tide in 1 min.

In another experiment the target is T2, GST-PDK1 [Thr148Val] (Homo sapiens, UniProt O15530, T148V).
T2 construct: different protein constructs, comprising the full length protein or the catalytic domain alone; made in house; host or cells: HEK293 cells (pEBG-2T-PDK1 mutant)
T2 sequence (O15530 1-556 T148V): T1 sequence (O15530 1-556) with T148V
The following applies: PDK1[Thr148Val]; 20 μM. The procedure:
as §1, §2, §3

A further experiment deals with T3, GST-PDK1 [Gln150Ala] (Homo sapiens, UniProt O15530, Q150A).
T3 construct: different protein constructs, comprising the full length protein or the catalytic domain alone; made in house; host or cells: HEK293 cells (pEBG-2T-PDK1 mutant)
T3 sequence (O15530 1-556 Q150A): T1 sequence (O15530 1-556) with Q150A
As to conditions: PDK1[Gln150Ala]; 20 μM. How it is done:
as §1, §2, §3

The next experiment has as its target T4, GST-PDK1 [Ile119Ala] (Homo sapiens, UniProt O15530, I119A).
T4 construct: different protein constructs, comprising the full length protein or the catalytic domain alone; made in house; host or cells: HEK293 cells (pEBG-2T-PDK1 mutant)
T4 sequence (O15530 1-556 I119A): T1 sequence (O15530 1-556) with I119A
As to conditions: Ile119 mutant; P-HM-RSK 20 μM. How it is done:
as §1, §2, §3

In the case of “GFRDFDY [polypeptide comprising the complete hydrophobic motif present in PIFtide, reference compound]”, the “activation of PDK1 (in words)” value with GST-PDK1 wt (concentrations up to 500 µM, data not shown) was “did not activate PDK1”.

As to “P-HM-PKB: phosphorylated HM polypeptide of PKB: KGAGGGGFPQFS(P)YSA (KGAGGGGFPQF[pS]YSA) [reference compound]”, the “activation of PDK1 mutant (in words)” value with GST-PDK1 [Thr148Val], with GST-PDK1 [Gln150Ala] and in the experiment with GST-PDK1 [Ile119Ala] was “completely abolished” each time. Also, the “activation of PDK1 (in words)” value with GST-PDK1 wt (PDK1 wild type) was “activated”.
